Measured values reported in the DeepSol protein solubility set.

Experiment: soluble on expression in E. coli; label from the status in PepcDB or PDB records
For “MPEGPAAVLAPRRKTRQLQVGTVGVGSDFPVSVQSMCTTKTHDVNATLQQIAELTASGCDIVRVACPRQEDADALATIAKKSQIPVIADIHFQPRYIFAAIEAGCAAVRVNPGNIKEFDGRVKEVAKAAGDAGIPIRIGVNAGSLDPRLMQKYGKATPEALVESALWEAGLFEEHGFGDIKISVKHNDPVIMVEAYRQLAAQCNYPLHLGVTEAGPAFQGTIKSAVAFGALLADGIGDTIRVSLSAPPAEEIKVGTQILQSLNLRPRKLEIVSCPSCGRAQVDVYTLADEVTAGLEGMEIPLRVAVMGCVVNGPGEAREADLGVASGNGKGQIFVKGKVIKTVPEAQIVETLIEEAMRIAEEMEGDATSGSPVVTVS”, the “soluble on expression in E. coli” value was “not soluble”. For “MPEITLNCQKLPCPQPVLRCKALLDTEAPARCTVTVDNAPASENVARFLTSRGYDTSVHADPEGLWNIIAVRKDSAVAPSCDCEVMDARGIAAIAGTAEMPQKVTVFITSETLGSGDDVLGGKLMANFLATLPELGDELWRIVCVNGGVRLATREHPAVTHLNKLEAMGVDILVCGTCLDHFGLLSEKAVGQTTNMLDVVTSLQLATKVIRPLEHHHHHH”, the “soluble on expression in E. coli” value was “soluble”. For “MPEITVLMPVRNGERYIKESIDSVLNQTLTDFEFLIIDDGSTDRTVEIIQGYTDKRIRLVRKEHQFIQNLNEGLELASGSYIARMDADDIMHTERLRIQLKRMKKNPDITVCGTWAKIFSDKGNERNVSHLGYGIIHEPVLELLKYNMLLHPSVMIKKEFLLNHHIEYQNYPCVEDYKLWFDIAKAGGILFVEPQELLMFRRSDTQVTVTKKKEMSLGSIRLRKEILLYLLSIYNNKTLNSLLSDFENLEKNKWMSNEDIFRFFVNLFNRIQRDTMVLEHHHHHH”, the “soluble on expression in E. coli” value was “soluble”. With “MPEVHATALIPMLTGTNVPESEEEIDAPIYDQREVEKIRGIAHNIAENAKNPEKLMPDFMAANPGIMSTMESLKLSDFGKTSTVVPSISTSPGPIFTLANGIPAVGTPGTQSSTTVKA” the “soluble on expression in E. coli” value was “soluble”. In the case of “MPFGLKSSQSIDDKFMSITQMKNLIHYVKKNDALSHLCIYILIITGSRFKPVQHLRYEDLNFKKSCIHLNDTKNKYSKRNVKVRIKDLEYIQSVINKHPINQNGYIFHNFINFISYSAINDVLVRFCLKYKYDKYTLKSLRHTHCSYLLAKGISIQYISKRLGHADIHTTLKIYSHLIKEFEDSENSLIEKNLNDLFSDLEHHHHHH”, the “soluble on expression in E. coli” value is reported as “soluble”. For “MPGFAIGQTAYVVKTDSYRLLWDCITYLDETTIAKIKELGGLDAIALSHPHYYSTQVEWAETFDVPIYIHEDDKEWVMRPSSRIIYWSGESLQLADGITIHRLGGHFSGGSVLHWEEGNDGKGILLTGDIIQVVADERWVSFMYSYPNLIPLPARKVEEMVNRVKPLQFNRLYNAFHRVVKLEHHHHHH”, the “soluble on expression in E. coli” value was “soluble”. For “MPGFNYGGDQDEVYTPYRRVLVTGATGLLGRAVYKEFKNNDWDALGCGYNRARPFFLKCNLLDEDAVRGVIQSFQPHVIVHCAAERRPDVVERHTEAAMNLNVHACATLAKEAGGSFLIYISTDYVFDGRNPPYGENDAPNPLNLYGKSKLEGEREILRHCPGAAVLRVPILFGEVEKVEESAVTVLFERVQEGAESCTIDHCQQRFPTYTNDVARVCRNMAERALQDQSLRGIFHYSAKEQMTKYEMTCAIADAFNLPSSHLIPMTEQPAGAGAQRPQNAQLECSRLELLGLSVESTPFKNAIRDSLWPFQHDKRWRQTVFH”, the “soluble on expression in E. coli” value was “soluble”. In the case of “MPGFSALSGGDKRQPEVNIGVVGHVDHGKTTLVQALTGVWTMRHSEEIRRGMTIKLGYADGEVWECEGCGFPERFSPEPVCECDPQASASLRRRVSYVDAPGHEILMATMLSGAALMDGALLVVAANEPCPQPQTKEHLVALEIIGIKNIVIVQNKVDVVSRERAKESYQEILNFIKGTIAEGSPIIPVSALKRANIDAVLAAIEKFIPTPPRDLDKPPVMYISRSFDVNRPGTPPERLVGGVVGGSIIQGVFRVGDEIEISPGVAVRKPGGRVEYVRLHTTITSLRFGSIEVEEARPGGLVAIGTQLDPSVTKADNLVGNVVGKPGELPEPLTTLRIEHHLLEKVVGMKEEARVEPIRRGEMLMLSVGTAITLGVVTRAGKDEIEVQLRRPVVTWPKARVALSRRIMGRWRLIGWGLIK”, the “soluble on expression in E. coli” value is reported as “soluble”. In the case of “MPGHELEDVINQRLNLYDVLELPTPLDVHTIYDDLPQIKRKYRTLALKYHPDKHPDNPSIIHKFHLLSTATNILTNADVRPHYDRWLIEFLRKTNDIERNKLIQKLEESESSTIPTTTPHPDLLQIQRHGELLRKLKHFNLPYGDWKHLNTQDQENASQHPYYDCSTLRIVLDNFLQSNNKSNCLSHLRNQVFITLSANEIYDIYFSERNNYSKDDSIIIYTVFDTPITAQHVFRNWSSGNLIPTVKDISPLIPLHYYSDFNLETELNDDIARLVSNEPILLD”, the “soluble on expression in E. coli” value is reported as “not soluble”. In the case of “MPHAPQEQIAPLLTTEGWELLASLGPYREADSFSVNAHLRKAGHSPELVAAVLTQSRLRTRAEAKFGEFARQMLFTQAGLEQATRLNVAARHAERFAKAGISHVADLGCGLGADSMAMASMDISVTAVEMDETTAACATINLMPFPHATVVHADATSVELDGMDGVWLDPARRTTSTSGTKRIWDPEAFSPPLSFVERLAATGRAIGVKMGPGIPHDSVPPGCEAQWVSVGGDVTEVTLWFNAVARPGVRRAALVIGNQGAAEITSGADFDGGPVAAVGPVEGFLYEPDGAVIRAGLVADVAGRLGGHLVDEHIAYICAPELHDTPFARAFKVLEVMPYNVKALKAWVKNQGITVLDIKKRGTAVTPEELRKQLLPAKPVKGKDAKTATLVLTRIGEERVAVVVEPVTA”, the “soluble on expression in E. coli” value is reported as “soluble”. In the case of “MPHFNFDYQEFLMMVQHLKRRPLSRYLKDFKHSQTHCAHCRKLLDRITLVRDGKIVNKIEISRLDTLLDEKGWQTEQQSWAALCRFCGDLHCKTQSDFFDIIGFKKFLFEQTEMSPGTVREYVVRLRRLGNHLHEQNISLDQLQDGFLDEILAPWLPTTSTNNYRIALRKYQHYQRQTCTGLVQKSSSLPASDIY”, the “soluble on expression in E. coli” value is reported as “not soluble”. With “MPHVLVLNASYEPLGVVPLRRALVLVLENKAVCLEESGAFMHSATVTVPAPSVVRLKRFVRVPYRGPVPLTRRALFARDGGRCMYCGGVATSVDHVIPRSRGGQHAWDNVVASCRRCNHVKADRHLFEIGWRLRHKPAPPTGLAWRIIGTGHRDPRWLPYLQPYGADDAMARIDGISAAAALEHHHHHH” the “soluble on expression in E. coli” value was “not soluble”. In the case of “MPILNLNNFLAALGNTPDYGRLFARAEHLAQVQKHLLNAVPFQLRNQCTVGQYTADGLLVIYAGNGTTATRLRHLAPSIRQKMNNAGVKVENIRFSIQPQLHSLESGNVREITRSLSQTAIEHLDKLSDSLPAGSPLQSSLAALLANSRRK”, the “soluble on expression in E. coli” value is reported as “not soluble”. For “MPISEDLKQAIRQRARYICEYCHSPERLSANRFTIDHVIPKSLGGSDAFNNLALACRRCNERRYNFVASIDPQTKTIVAIFNPRQQNWAEHFIWTNRGIIIQGTTTTGRATCIRLDLNDTRYPEEDSIQETRRFWLKTGLHPPIDDPCKNLEHHHHHH”, the “soluble on expression in E. coli” value was “soluble”. With “MPIVNVKWQKEKYVVEVDTSAPPMVFKAQLFALTQVVPERQKVVIMGRTLGDDDWEGITIKENMTIMMMGSVGEIPKPPTVLEKKQANRDKQAEEISALYPCGLANLGNTCYFNSCVQMLKEVNELVLKPAEEMRIREHNDRLCHNLATLFNSLRDKDRALRSKGEPIKPFAAILTLSDSFPQFEKFKQQDANECLVSIMSNVTRIYGLSGWNIESLFRIQTETTMKCLESDEVSEKKVERNNQLTCYVNQDVRFLQTGIKAGFEEEMTRNSEELNRDAKWQKNTQISRLPKYLTVNINRFFYKESTKTNAKILKSVQFPMQLDTYDLCSQELKDKLVARRADIKLEEDAKLERELRKKVLDKEQGDKIFDDGVALPTAFEDDAGSNNSGFYDLKGIITHKGRSSQDGHYVAWMRSSEDGKWRLFDDEHVTVVDEEAILKTSGGGDWHSAYVLLYEARVIKQFPELPPAPVPTEVAADTAEPMEVSEKQ” the “soluble on expression in E. coli” value was “not soluble”. With “MPKAEGRIFDFKGHDAIRTDFLEAIDFDGKDEYIKIETDEFSAVCPFSGLPDIGRVIIEYYPDGGKIVELKSLKYYFVSFRNVGIYQEEATKRIYEDLKNLLKTDRIRVTVIYNIRGGIKTTTQMGSLEGKKSGEVE” the “soluble on expression in E. coli” value was “not soluble”. In the case of “MPKESLLRELSALREQLEQQPPLNEEQRAELELLIRDIELKLANEDALNEGSLVDGVNLAVERFEVSHPTLAGTLRSIVQSLANMGI”, the “soluble on expression in E. coli” value is reported as “not soluble”. With “MPKNRGVLDAITRSVIDGSDQESSSSFNSDKEYAAVTKGLSSSRVQKKSSLRQMKSKVKELQSLVNHYRENEAALVSSAKLLSGEIIGYEIKMASLHGKMKSILDENNALKETHKSSAEKRIELVRLPSSKEERNYDEYTLLVNLKKEICAKLQDYKNVQNTVNTKLDEIHTFHEKYYEGLELSLDSKVFDAESSKELAKVRRELNNVRKNSEIKVNNLKMQLLQATKSLEHLKKQAKAKDDYLKCIPELVDKANLTMLSYKKSIANQRETIEALQAELSQQSETKGQIETETQNQVQIPTNVTLVDPFEENNPEDLFAIQEQELQDLRLHKKMADERSRTTHLHLERKNNTIKLLQSYVQSLIQRLPPAQRKHHLGIFQKLGSEKSCPLAPAVASTYAPLLLLSQHSNHQEIDNTPQRLLLAAPDGQSYSEKSTTLNLDYSSRKSYLSRLQPPHIANLKSLTLKTLPRVPTDSPQLPSKDKSQETAKKDDRPKLVANEPVTLDTSTPPVAQSLADSKHCSGLHK” the “soluble on expression in E. coli” value was “not soluble”. For “MPKPYIAINMADLKNEPKTFEMFSAVGPKVCMVTARHPGFVGFQNHVQIGVLPFGERFGGAKMDMTKESSTVRVLQYTMWKDWKDHEEMHRQNWSYLFRLCYSCASQMVWGPWEPIYEIKYADMPINTEMTDFTAVVGKKFAEGKPLEIPVISQPYGKRVVAFGEHTVIPGKEEQFEDAIIKTLEMFKRAPGFLGAMLLKEIGVSGIGSFQFGSKGFHQLLESPGSLEPDPNNVMYQAPEAKPTPPQYIVHVEWANLDALQFGMGRVLLSPEYREVHDEALDTLIYGPYIRIINPVMEGTFWREYLNE”, the “soluble on expression in E. coli” value was “soluble”. In the case of “MPLCTLRQMLGEARKHKYGVGAFNVNNMEQIQGIMKAVVQLKSPVILQCSRGALKYSDMIYLKKLCEAALEKHPDIPICIHLDHGDTLESVKMAIDLGFSSVMIDASHHPFDENVRITKEVVAYAHARSVSVEAELGTLGGIEEDVQNTVQLTEPQDAKKFVELTGVDALAVAIGTSHGAYKFKSESDIRLAIDRVKTISDLTGIPLVMHGSSSVPKDVKDMINKYGGKMPDAVGVPIESIVHAIGEGVCKINVDSDSRMAMTGAIRKVFVEHPEKFDPRDYLGPGRDAITEMLIPKIKAFGSAGHAGDYKVVSLEEAKAWYK”, the “soluble on expression in E. coli” value is reported as “soluble”. For “MPLDVALKRKYYEEVRPELIRRFGYQNVWEVPRLEKVVINQGLGEAKEDARILEKAAQELALITGQKPAVTRAKKSISNFKLRKGMPIGLRVTLRRDRMWIFLEKLLNVALPRIRDFRGLNPNSFDGRGNYNLGLREQLIFPEITYDMVDALRGMDIAVVTTAETDEEARALLELLGFPFRK”, the “soluble on expression in E. coli” value was “soluble”. With “MPLSPTSVPLTVKEFEKALCGICGGCSSACGYIAYLKQDELVDLYGHPHDPNGIGSFCTKGITYIQEIPKNPLRITKPLLREGNNFREVEFQETKKLIKENLKGKVAFFLDRFAGIEEYLIARSLTEEVFSDSLYLPFKQTSVRAQDWVDKKALFIFEAEPTFSEVMLTRWIVDAFEKDAYIFTAGSRYTTVFQKSKEKVLTTPEKTTEILQALSEGRFEGKAQKFLEFFGKESVVIVGDTLLRSPFRGKVLKTLKEISEKYGADYSIVGNITPFPVKSLKEFLERLGEFDTLVLFGNPFIYLSDEQIQKLKDKFVINFAYFPTITANHSTLIIPRTTFAEREFIVKGFGFLAHSPQVLNAPFPQPYEYFESSFDVEDFLKECGVKLEELKEKEGGVDISMKDITEVDINEEDRSESGELWFICDNTLAEELGHWNPWTHALEREQFAYVNQKTKERLNIGNLIEINGVKLKVKVNNNLADNVVFVPNSFEEFQPFDPGIRVGRLMKKPFFKLEVLNLNV” the “soluble on expression in E. coli” value was “not soluble”.
